Assay results published in patent publication US20250145722A1 (TRUEBINDING, published 2025).

How the values were obtained:
[1] = biological target: T1, human Galectin-3 (Gal3), full-length recombinant (human, UniProt P17931 2-250); experiment: blocking ELISA, Gal3 coated, biotin-Abeta42 peptide
T1 construct: treated here as one molecule; also called hGAL3; hGal3

[2] = biological target: T1, human Galectin-3 (Gal3), full-length …; experiment: blocking ELISA, Gal3 coated, biotin-TGFβR2
[3] = biological target: T1, human Galectin-3 (Gal3), full-length …; experiment: blocking ELISA, Gal3 coated, biotin-Abeta42 oligomer
[4] = biological target: T1, human Galectin-3 (Gal3), full-length …; experiment: blocking ELISA, Gal3 coated, biotin-TLR4
[5] = biological target: T1, human Galectin-3 (Gal3), full-length …; experiment: not stated (FIG. 50)
mouse Gal3 = mouse Gal3 (mouse, UniProt P16110 2-264, limits assumed); experiment: not stated (FIG. 50)
[6] = biological target: T1, human Galectin-3 (Gal3), full-length …; experiment: blocking ELISA, Gal3 coated, TREM2-His
[7] = biological target: T1, human Galectin-3 (Gal3), full-length …; experiment: cell-based or functional assay
[8] = biological target: T1, human Galectin-3 (Gal3), full-length …; experiment: blocking ELISA, Gal3 coated, biotin-Tau aggregates
[9] = biological target: T1, human Galectin-3 (Gal3), full-length …; experiment: blocking ELISA, Gal3 coated, biotin-APP695
[10] = biological target: T1, human Galectin-3 (Gal3), full-length …; experiment: ELISA: Gal3 coated, His-tagged TREM2 detected with anti-6xHis-HRP; concentrations of the bars not printed on the sheet
[11] = biological target: T1, human Galectin-3 (Gal3), full-length …; experiment: titration of the antibody on a panel of galectins, read as OD450; set-up not given, species of the galectins not given
[12] = biological target: T1, human Galectin-3 (Gal3), full-length …; experiment: blocking ELISA, Gal3 coated, VEGFR3-Fc, antibody 20 µg/ml
[13] = biological target: T1, human Galectin-3 (Gal3), full-length …; experiment: not stated. Exponent is printed without a minus sign; value taken as a negative power of ten because the column is a KD in M
[14] = biological target: T1, human Galectin-3 (Gal3), full-length …; experiment: blocking ELISA, Gal3 coated, biotin-α-synuclein aggregates
[15] = biological target: T1, human Galectin-3 (Gal3), full-length …; experiment: ELISA: Gal3 coated at 2 or 3 µg/ml, protein at 2 or 3 µg/ml, anti-human IgG-HRP, A450
[16] = biological target: T1, human Galectin-3 (Gal3), full-length …; experiment: blocking ELISA, Gal3 coated, PDGFR beta-Fc, antibody 20 µg/ml
[17] = biological target: T1, human Galectin-3 (Gal3), full-length …; experiment: blocking ELISA, Gal3 coated, EGFR-Fc, antibody 20 µg/ml
[18] = biological target: T1, human Galectin-3 (Gal3), full-length …; experiment: blocking ELISA, Gal3 coated, PDGFR alpha-Fc, antibody 20 µg/ml

T1 sequence (P17931 2-250 limits assumed): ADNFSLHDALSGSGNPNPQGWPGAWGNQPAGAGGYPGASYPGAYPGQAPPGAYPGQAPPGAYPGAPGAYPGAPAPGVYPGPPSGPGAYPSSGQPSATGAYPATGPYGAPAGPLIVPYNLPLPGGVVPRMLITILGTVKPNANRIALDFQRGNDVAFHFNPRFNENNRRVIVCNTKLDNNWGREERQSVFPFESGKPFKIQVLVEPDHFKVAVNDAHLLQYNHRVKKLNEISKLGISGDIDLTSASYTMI
mouse Gal3, sequence (P16110 2-264 limits assumed): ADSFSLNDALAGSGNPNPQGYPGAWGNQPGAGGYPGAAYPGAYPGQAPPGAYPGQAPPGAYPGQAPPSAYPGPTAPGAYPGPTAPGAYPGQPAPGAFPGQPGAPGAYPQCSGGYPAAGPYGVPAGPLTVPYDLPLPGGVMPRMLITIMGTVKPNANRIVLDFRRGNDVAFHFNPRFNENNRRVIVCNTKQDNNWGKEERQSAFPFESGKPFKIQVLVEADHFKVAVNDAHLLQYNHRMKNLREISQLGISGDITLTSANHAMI

B1: TB006 (antibody, V domains shown)
VH: QVQLVQSGAEVKKPGASVKVSCKASGYSFTNYYMHWVRQAPGQRLEWMGWIYPGSGNTNYNEKFQGRVTITADTSASTAYMELSSLRSEDTAVYYCSTAPGGFDVWGQGTTVTVSS
VL: DIVMTQTPLSLSVTPGQPASISCKSSKSLLHSDGITYLYWYLQKPGQSPQLLIYRMSNLASGVPDRFSGSGSGTDFTLKISRVEAEDVGVYYCAQMLEFPLTFGQGTKLEIKR
notes: Humanized variant derived from murine 4A11.2B5; also called 4A11.H3L1; IMT006
% blocking of Gal3-Abeta42 peptide binding [1]: > 90%
IC50 [2]: 11.5 nM
% blocking of Gal3-Abeta42 oligomer binding [3]: > 90%
IC50 [3]: 2.38 nM
% blocking of Gal3-TLR4 binding [4]: > 90%
Kd [5]: 8.9 nM
Kd (mouse Gal3): 40000 nM
% blocking of Gal3-TREM2 binding [6]: > 90%
IC50 of TGF-β-induced pro-collagen production in LX-2 cells [7]: 0.23 µg/mL
% blocking of Gal3-Tau aggregates binding [8]: > 90%
% blocking of Gal3-APP695 binding [9]: > 90%

B2: recombinant human TREM2 protein (Sino Biological, 11084-H08H) (receptor, UniProt Q9NZC2 19-174, looked up)
chain: HNTTVFQGVAGQSLQVSCPYDSMKHWGRRKAWCRQLGEKGPCQRVVSTHNLWLLSFLRRWNGSTAITDDTLGGTLTITLRNLQPHDAGLYQCQSLHGSEADTLRKVLVEVLADPLDHRDAGDLWFPGESESFEDAHVEHSISRSLLEGEIPFPPTS
notes: Detected with anti-6x His tag antibody, so His-tagged; tag not described
binding result [10]: binds

B3: TB001 (antibody, IgG4, V domains shown)
VH: QVQLVQSGSELKKPGASVKVSCKASGYTFTNYGMNWVRQAPGQGLKWMGWINTNTGEPTYVEEFTGRFVFSLETSVSTAYLQISSLKAEDTAVYFCAPYDNFFAYWGQGTTVTVSS
VL: DIVLTQSPLSLPVTPGEPASISCRSSKSLLYKDGKTYLNWFLQKPGQSPQLLIYLMSTHASGVPDRFSGSGSGTDFTLKISRVEAEDVGVYYCQQLVDYPLTFGGGTKLEIKR
notes: also called IMT001; IMT001-4
% blocking of Gal3-Abeta42 peptide binding [1]: > 90%
IC50 [2]: 12.8 nM
% blocking of Gal3-Abeta42 oligomer binding [3]: > 90%
IC50 [3]: 3.17 nM
EC50 (read off the curve) [11]: ~0.007 µg/mL
% blocking of Gal3-TLR4 binding [4]: > 90%
Kd [5]: 3.6 nM
Kd (mouse Gal3): 2.3 nM
% blocking of Gal3-TREM2 binding [6]: > 90%
IC50 of TGF-β-induced pro-collagen production in LX-2 cells [7]: 0.25 µg/mL
% blocking of Gal3-APP695 binding [9]: > 90%

B4: 4G2.2G6 (antibody, human IgG4 S228P, kappa, V domains shown)
VH: QIQLVQSGPDLKKPGETVKISCKASGYTFTTYVMSWVKQAPGKDLKWMGWINTHSGVPTYADDFKGRFDFSLETSANTAFLQINNLKNEDTATYFCTRDGNDGDAMDNWGQGTSVTVSS
VL: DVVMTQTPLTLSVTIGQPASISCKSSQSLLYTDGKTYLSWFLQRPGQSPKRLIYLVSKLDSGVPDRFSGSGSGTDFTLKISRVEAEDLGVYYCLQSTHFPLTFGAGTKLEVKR
% blocking of Gal3-VEGFR3 binding [12]: < 30%

B5: F847C.10B9 (antibody, human IgG4 S228P, kappa)
heavy: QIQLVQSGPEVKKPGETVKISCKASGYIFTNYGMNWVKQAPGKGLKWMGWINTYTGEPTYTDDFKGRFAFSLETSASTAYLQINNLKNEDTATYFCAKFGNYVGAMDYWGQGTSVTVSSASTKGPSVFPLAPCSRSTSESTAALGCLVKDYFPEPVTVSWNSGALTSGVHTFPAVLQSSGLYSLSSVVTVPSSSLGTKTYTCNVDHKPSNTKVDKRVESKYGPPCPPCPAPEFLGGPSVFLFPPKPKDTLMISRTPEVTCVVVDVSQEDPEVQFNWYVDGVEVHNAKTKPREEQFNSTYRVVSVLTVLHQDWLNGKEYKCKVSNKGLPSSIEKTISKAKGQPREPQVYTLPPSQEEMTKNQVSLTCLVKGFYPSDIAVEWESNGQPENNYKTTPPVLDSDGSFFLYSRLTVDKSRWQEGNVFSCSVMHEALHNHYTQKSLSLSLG
light: DIRMTQSPSSLSASLGDTITITCHASQNINVWLSWYQQKPGNIPKLLIYKASNLHTGVPSRFSGSGSGTGFTLTISSLQPEDIATYYCQQGQSYPYTFGGGTKLELKRTVAAPSVFIFPPSDEQLKSGTASVVCLLNNFYPREAKVQWKVDNALQSGNSQESVTEQDSKDSTYSLSSTLTLSKADYEKHKVYACEVTHQGLSSPVTKSFNRGEC
notes: also called 847.10B9
% blocking of Gal3-Tau aggregates binding [8]: > 90%
Kd [13]: 13600 nM
% blocking of Gal3-α-synuclein aggregates binding [14]: > 90%

B6: F847C.12F12 (antibody, V domains shown)
VH: QIQLVQSGPELKKPGETVKISCKASGYTFTNYGMNWVKQAPGKGLKWMGWINTYTGEPTYVDDFKGRFAFSLETSASTAYLRINNLKNEDTATYFCAKFGNYVGAMDYWGQGTSVTVSS
VL: DIQVIQSPSSLSASLGDTITITCHASQNINVWLSWYQQKPGNIPKLLIYKASNLHTGVPSRFSGSGSGTGFTLTISSLQPEDIATYYCQQGQSYPYTFGGGTKLELKR
notes: also called 84712F12
% blocking of Gal3-Tau aggregates binding [8]: > 90%
Kd [13]: 19.2 nM
% blocking of Gal3-α-synuclein aggregates binding [14]: > 90%

B7: F847C.11B1 (antibody, human IgG4 S228P, kappa, V domains shown)
VH: EVQLQQSGPELVKPGASVKISCKASGNTFTDHNMHWVKQSHGKSLEWIGYIYPYNGGTGYNQKFKSKATLTVDNSSSTVYMELRSLTSEDSAVYYCARGEYDYLAWFAYWGQGTLVTVSA
VL: EIVLTQSPASLSVTTGEKVTIRCITSIDIDDDMNWYQQKPGEPPKLLISEGNTLRPGVPSRFSSSGYGTDFVFTIENTLSEDVADYYCLQSDNKPLTFGAGTKLELKR
notes: also called 847.11B1
% blocking of Gal3-Abeta42 peptide binding [1]: < 46%
% blocking of Gal3-Abeta42 oligomer binding [3]: < 26%
% blocking of Gal3-TREM2 binding [6]: < 47%
% blocking of Gal3-Tau aggregates binding [8]: < 50%
Kd [13]: 4.29 nM
% blocking of Gal3-α-synuclein aggregates binding [14]: < 50%

B8: recombinant human TNF sRI (R&D Systems, 372-RI/CF) (receptor, UniProt P19438 30-211, looked up)
chain: LVPHLGDREKRDSVCPQGKYIHPQNNSICCTKCHKGTYLYNDCPGPGQDTDCRECESGSFTASENHLRHCLSCSKCRKEMGQVEISSCTVDRDTVCGCRKNQYRHYWSENLFQCFNCSLCLNGTVHLSCQEKQNTVCTCHAGFFLRENECVSCSNCKKSLECTKLCLPQIENVKGTEDSGTT
notes: Detected with anti-human IgG
binding result [15]: binds

B9: 13G4.2F8 (antibody, human IgG4 S228P, kappa, V domains shown)
VH: QVQLQQPGAELVKPGASVKLSCKASGYTFTSYWMHWVKQRPGQGLEWIGMIHPNSGSTDYNEKFKNKATLNVDKSSSTAYIQLSSLTSEDSAVYYCTRWGIYYYARDYWGQGTTLTVSS
VL: DIVMTQSQKFMSTSVGERVSITCKASQNVGTNVAWYQQKAGQSLELLIYGASNRHTGVPDRFTGSGSGTDFTLTITNVQSEDMTNYFCEQYSNFPLTFGAGTKLELKR
% blocking of Gal3-PDGFR beta binding [16]: < 30%
% blocking of Gal3-EGFR binding [17]: < 30%
% blocking of Gal3-Tau aggregates binding [8]: < 50%
% blocking of Gal3-PDGFR alpha binding [18]: < 30%
% blocking of Gal3-VEGFR3 binding [12]: < 30%
% blocking of Gal3-α-synuclein aggregates binding [14]: < 50%

B10: 15G7.2A7 (antibody, human IgG4 S228P, kappa, V domains shown)
VH: EVQLQQSGPELVKPGASVKISCKASGYTFTDYYMNWVKQSHGKSLEWIGDINPNNGGTNYNQKFKGKATLTVDKSSSTAYMELRSLTSEDSAVYYCTSGYGFPYWGQGTLVTVSA
VL: DIQMNQSPSSLSASLGDTISITCRASQNINIWLSWYQQKPGNIPQLLIYKASNLHTGVPSRFSGSGSGTDFTLTISSLQPEDIATYYCLQGQSYPLTFGAGTKLVMKR
notes: also called 15FG7.2A7
% blocking of Gal3-Abeta42 peptide binding [1]: > 90%
% blocking of Gal3-TLR4 binding [4]: > 90%
% blocking of Gal3-TREM2 binding [6]: > 90%
% blocking of Gal3-Tau aggregates binding [8]: > 90%
% blocking of Gal3-APP695 binding [9]: > 90%
% blocking of Gal3-α-synuclein aggregates binding [14]: > 90%

B11: 24D12.2H9 (antibody, human IgG4 S228P, kappa, V domains shown)
VH: QVQLKQSGPGLVQPSQSLSITCTVSGFSLTSYGVHWVRQAPGKGLEWLGVIWSGGSTDYNAAFMSRLSISKDNSKSQVFFKMNSLQADDTAIYYCAKSPDGYDVAWFGYWGQGTLVTVSA
VL: DIVMTQSHKFMSTSVGDRVSITCKASQDVRTAVAWYQQKPGQSPKLLIYWASTRHTGVPDRFTGSGSGTDFTLTLSNVQSEDLADYFCQQYSSYPWTFGGGTKLEIKR
% blocking of Gal3-PDGFR beta binding [16]: < 30%
% blocking of Gal3-EGFR binding [17]: < 30%
% blocking of Gal3-PDGFR alpha binding [18]: < 30%
% blocking of Gal3-VEGFR3 binding [12]: < 30%

B12: mTB001 (antibody, mouse IgG2a, V domains shown)
VH: QIQLVQSGPELKKPGETVKISCKASGYTFTNYGMNWVKQAPGKGLKWMGWINTNTGEPTYVEEFKGRFAFSLETSASTAYLQINNLKNEDTATYFCAPYDNFFAYWGQGTLVTVSA
VL: DIVITQDELSNPVTSGESVSISCRSSKSLLYKDGKTYLNWFLQRPGQSPQLLIYLMSTHASGVSDRFSGSGSGTDFTLEISRVKAEDVGVYYCQQLVDYPLTFGAGTKLELKR
notes: also called mIMT001; murine IMT001
% blocking of Gal3-PDGFR beta binding [16]: > 70%
% blocking of Gal3-EGFR binding [17]: > 70%
decrease in TGFβ induction of ColA1 mRNA in LX2 cells (qRT-PCR) [7]: 63%
% blocking of Gal3-PDGFR alpha binding [18]: > 70%
